The supplement of paper PMC7125110
± gives the standard error. Fewer inactive variants are shown than the library holds.

B1: glmS ribozyme (parent)
chain: AUAAAAGCGCCAGAACUACAGAAAUGUAGUUGACGAGGAGGAGGUUUAUCGAAUUUUCGGCGGAUGCCUCCAAA

How the values were obtained:
Details in all cases: with glucosamine-6-phosphate
[1] = variants of: B1; assay: self-cleavage kobs at 40 uM GlcN6P; higher = faster cleavage; RNA array
Outline: (§1)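 Barcoded ribozyme variants, transcribed in situ by E. coli RNA polymerase on sequenced MiSeq chips, were followed via a hybridised Cy3 probe at 37 °C. Glucosamine-6-phosphate ranged from 40 μM to 10 mM in HEPES/KCl/Mg(OAc)2 buffer. kobs came from decay fits to per-tile medians, and kcat and KM from weighted Michaelis–Menten fits.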

[2] = variants of: B1; assay: self-cleavage kobs at 2500 uM GlcN6P; higher = faster cleavage; RNA array
Outline: as §1

[3] = variants of: B1; assay: self-cleavage kobs at 160 uM GlcN6P; higher = faster cleavage; RNA array
Outline: as §1

[4] = variants of: B1; assay: self-cleavage kobs at 10000 uM GlcN6P; higher = faster cleavage; RNA array
Outline: as §1

[5] = variants of: B1; assay: self-cleavage kobs at 640 uM GlcN6P; higher = faster cleavage; RNA array
Outline: as §1

Variant	self-cleavage kobs at 40 uM GlcN6P [1] [s⁻¹]	self-cleavage kobs at 2500 uM GlcN6P [2] [s⁻¹]	self-cleavage kobs at 160 uM GlcN6P [3] [s⁻¹]	self-cleavage kobs at 10000 uM GlcN6P [4] [s⁻¹]	self-cleavage kobs at 640 uM GlcN6P [5] [s⁻¹]
A36G C50G	3.66e-05 ± 1.5e-05	–	–	–	–
A33U G59U G62A	< 1e-05	–	–	–	–
G38U A64G	< 1e-05	< 1e-05	–	–	–
G38U A64C	< 1e-05	< 1e-05	< 1e-05	< 1e-05	–
G37U G41C	< 1e-05	< 1e-05	< 1e-05	–	< 1e-05
C34A U65A	< 1e-05	< 1e-05	–	< 1e-05	–
A33U G35U	< 1e-05	< 1e-05	–	< 1e-05	< 1e-05
G37C U57A	< 1e-05	–	–	< 1e-05	< 1e-05
G37U C71U	< 1e-05	–	–	–	< 1e-05
G35U U45A C50G	< 1e-05	–	–	–	–
G37C G41U	< 1e-05	< 1e-05	< 1e-05	< 1e-05	< 1e-05
A36C G41A C68A	< 1e-05	< 1e-05	–	< 1e-05	< 1e-05
G37C A39G C50U	< 1e-05	–	–	–	–
G32U G41A G66C C68G	< 1e-05	< 1e-05	< 1e-05	< 1e-05	–
A36G A42G A52G	< 1e-05	< 1e-05	–	–	< 1e-05
G35U C68G	0.000484 ± 0.00019	–	–	–	–
G38U A42C	< 1e-05	–	< 1e-05	< 1e-05	–
A36U G51A	< 1e-05	–	< 1e-05	< 1e-05	–
C34A G38U U69A	< 1e-05	–	–	–	–
C34A G37C A48C	< 1e-05	–	–	< 1e-05	–
G40A G41C G43U	< 1e-05	–	–	–	–
G38A C50U A53G G62U	< 1e-05	–	–	–	–
A36C G59U C68G	< 1e-05	–	–	–	–
C34U C50G A53U C68G	8.23e-05 ± 1.6e-05	–	–	0.000111 ± 1.6e-05	0.000541 ± 0.00016
G35C A39C U49A A53U	< 1e-05	–	–	–	–

Variant	self-cleavage kobs at 40 uM GlcN6P [1] [s⁻¹]	self-cleavage kobs at 2500 uM GlcN6P [2] [s⁻¹]	self-cleavage kobs at 160 uM GlcN6P [3] [s⁻¹]	self-cleavage kobs at 10000 uM GlcN6P [4] [s⁻¹]	self-cleavage kobs at 640 uM GlcN6P [5] [s⁻¹]
G32U C61G	< 1e-05	–	–	–	< 1e-05
A36C G37U G51U	< 1e-05	–	–	–	–
G40U G44U	< 1e-05	–	< 1e-05	–	< 1e-05
G35C G51A C68U	< 1e-05	–	–	–	–
A36U C50G U69C	0.000561 ± 0.00011	–	–	0.000905 ± 0.00017	–
A33U U56A C71A	< 1e-05	–	–	–	–
G40C G51A	< 1e-05	< 1e-05	–	< 1e-05	< 1e-05
G32U U49C	< 1e-05	< 1e-05	< 1e-05	–	< 1e-05
G37U A42G	< 1e-05	< 1e-05	–	–	< 1e-05
A39C U49G	< 1e-05	4.21e-05 ± 1.9e-05	< 1e-05	6.91e-05 ± 9.5e-06	–
G38U U57G C68A U69A	6.8e-05 ± 3e-05	–	–	5.25e-05 ± 2e-05	–
A33C C34G C71U	< 1e-05	< 1e-05	–	–	–
G38C U55G	< 1e-05	< 1e-05	< 1e-05	< 1e-05	< 1e-05
A33G A39U G41C	< 1e-05	–	–	< 1e-05	–
G35C A42G U49A G66C	< 1e-05	< 1e-05	–	< 1e-05	–
G32U A53G A64U	< 1e-05	–	–	–	–
A39G C71A	0.000536 ± 7.8e-05	0.00277 ± 0.00061	0.000645 ± 9.8e-05	0.00612 ± 0.0011	0.00173 ± 0.00045
A36C A39C C58U C61A C71A	< 1e-05	–	–	–	–
G37A A39C G40U	< 1e-05	–	–	4.03e-05 ± 1e-05	–
C34U U69G	0.000246 ± 5.1e-05	0.00161 ± 0.00069	5.32e-05 ± 2.5e-05	0.000285 ± 4.5e-05	0.000467 ± 0.00011
G35C G41U G51C	< 1e-05	< 1e-05	–	–	–
G35C G38U C50G C68A C70A	0.000136 ± 3.2e-05	–	–	0.000258 ± 3.9e-05	–
A36U G37C G41C U55G	< 1e-05	–	–	< 1e-05	< 1e-05
A36G A39U C68U	< 1e-05	–	–	< 1e-05	–
A36G G38C U55A	< 1e-05	–	–	< 1e-05	–

Variant	self-cleavage kobs at 40 uM GlcN6P [1] [s⁻¹]	self-cleavage kobs at 2500 uM GlcN6P [2] [s⁻¹]	self-cleavage kobs at 160 uM GlcN6P [3] [s⁻¹]	self-cleavage kobs at 10000 uM GlcN6P [4] [s⁻¹]	self-cleavage kobs at 640 uM GlcN6P [5] [s⁻¹]
A39G G59U	< 1e-05	–	< 1e-05	5.72e-05 ± 9.8e-06	–
C34G U45G C70A	< 1e-05	< 1e-05	< 1e-05	< 1e-05	–
G35C U69A C70G	< 1e-05	–	–	–	–
A36G A39G	< 1e-05	–	< 1e-05	–	< 1e-05
G40A C58G C70U	< 1e-05	–	–	< 1e-05	–
G35A U49G C71A	< 1e-05	–	–	< 1e-05	–
G37C G44U U46G C71G	< 1e-05	–	–	–	–
C34U A48G	< 1e-05	< 1e-05	< 1e-05	< 1e-05	< 1e-05
G32U A48U C61U G63U C67U	< 1e-05	–	–	< 1e-05	< 1e-05
G37C A52U A53U	< 1e-05	–	–	–	–
G37C A48C	< 1e-05	< 1e-05	–	< 1e-05	< 1e-05
G35U U45A G63C C71G	< 1e-05	< 1e-05	–	< 1e-05	–
C34G A42U	< 1e-05	< 1e-05	< 1e-05	< 1e-05	< 1e-05
G35A C71U	< 1e-05	< 1e-05	< 1e-05	< 1e-05	< 1e-05
G35A G41A A48G C61U	< 1e-05	–	–	–	–
A36G U57A	< 1e-05	< 1e-05	< 1e-05	< 1e-05	< 1e-05
A39G G40C C67U	< 1e-05	< 1e-05	–	< 1e-05	–
G38A G41C G43U	< 1e-05	–	–	–	–
G37U A53U U55A	< 1e-05	–	–	–	–
G38C A39C G40C C50A A53G U65C	< 1e-05	–	–	–	–
C34U C50G	5.12e-05 ± 1.3e-05	5.23e-05 ± 2.2e-05	0.000184 ± 3.2e-05	–	0.000831 ± 0.00035
G40A G60A U69A	< 1e-05	–	–	–	–
G38U C70G	2.71e-05 ± 1e-05	–	0.000289 ± 9.3e-05	–	0.000298 ± 0.00014
G35A U49G	< 1e-05	–	–	–	–
A33C G43C	< 1e-05	< 1e-05	< 1e-05	< 1e-05	< 1e-05

Variant	self-cleavage kobs at 40 uM GlcN6P [1] [s⁻¹]	self-cleavage kobs at 2500 uM GlcN6P [2] [s⁻¹]	self-cleavage kobs at 160 uM GlcN6P [3] [s⁻¹]	self-cleavage kobs at 10000 uM GlcN6P [4] [s⁻¹]	self-cleavage kobs at 640 uM GlcN6P [5] [s⁻¹]
G37U G38A A42C	< 1e-05	< 1e-05	–	< 1e-05	< 1e-05
G35C U49C	< 1e-05	–	–	–	< 1e-05
G37C G43A C61A	< 1e-05	–	–	< 1e-05	–
A36C A52U	< 1e-05	–	–	< 1e-05	–
C34U U55A G60U	< 1e-05	–	–	–	< 1e-05
A33U U47A U54C	< 1e-05	4.24e-05 ± 2e-05	–	7.82e-05 ± 1.8e-05	–
G38U G43C A64U	< 1e-05	< 1e-05	–	–	–
G40U C68A	< 1e-05	< 1e-05	< 1e-05	< 1e-05	< 1e-05
G40A U57G	< 1e-05	< 1e-05	–	–	< 1e-05
G38C G43U	< 1e-05	< 1e-05	< 1e-05	< 1e-05	< 1e-05
G35U G60A	< 1e-05	< 1e-05	< 1e-05	< 1e-05	< 1e-05
G38U G66C	< 1e-05	–	–	–	< 1e-05
G35C C71G	< 1e-05	–	< 1e-05	–	< 1e-05
C34A A42G	< 1e-05	< 1e-05	< 1e-05	–	< 1e-05
A36C C50G C70U	0.000435 ± 0.00014	0.00027 ± 0.0001	–	0.000831 ± 0.00026	–
G35A U54G C68G	0.000144 ± 5.9e-05	–	–	–	–
G37A C61U	< 1e-05	< 1e-05	–	–	< 1e-05
G35U G63U	< 1e-05	< 1e-05	< 1e-05	< 1e-05	< 1e-05
C34A C50G C71U	6.66e-05 ± 3e-05	0.000247 ± 0.00012	0.000155 ± 6.7e-05	6.4e-05 ± 2.5e-05	0.000408 ± 0.0001
G37U A52U U57A	< 1e-05	–	–	–	–
A39C C50G U55C	< 1e-05	–	–	< 1e-05	–
G40U G51A U54A A64U	< 1e-05	–	–	–	–
C34G G37U G38C U47G U56C	< 1e-05	–	–	< 1e-05	–
